According to article PMC12713088, “Arabidopsis TRB Proteins Form Two Closely Related Complexes to Mediate H3K4me3 Demethylation and Transcriptional Repression” (Advanced Science, 2025):

Columns and labels:
[1] = molecular target: T1, NAC050-N (Arabidopsis thaliana, UniProt Q9SQX9 1-184); assay: EMSA; EMSA: 10 mM Tris-HCl pH 7.5, 50 mM NaCl, 1 mM EDTA, 5% glycerol, 1 mM DTT, 25 C, 30 min, 20 ng DNA + 1 ug protein; ITC: 20 mM Tris-HCl pH 7.5, 150 mM NaCl, 25 C, 5 uM protein, 100 uM DNA; conditions: protein: recombinant; tags: MBP; chain copies: 2; label: Cy5 at 5' of strand 1; blunt
T1 sequence: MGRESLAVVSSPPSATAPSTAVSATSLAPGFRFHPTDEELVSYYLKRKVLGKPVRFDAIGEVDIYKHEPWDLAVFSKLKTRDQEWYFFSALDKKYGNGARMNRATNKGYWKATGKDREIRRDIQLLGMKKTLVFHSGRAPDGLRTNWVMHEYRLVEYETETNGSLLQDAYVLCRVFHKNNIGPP

[2] = molecular target: T2, TRB1;NAC050-N (Arabidopsis thaliana;Arabidopsis …, UniProt Q8VWK4;Q9SQX9 1-300;1-184, |); assay: EMSA; TRB1 added to NAC050-N; larger complex; EMSA: 10 mM Tris-HCl pH 7.5, 50 mM NaCl, 1 mM EDTA, 5% glycerol, 1 mM DTT, 25 C, 30 min, 20 ng DNA + 1 ug protein; ITC: 20 mM Tris-HCl pH 7.5, 150 mM NaCl, 25 C, 5 uM protein, 100 uM DNA; conditions: protein: recombinant;recombinant; tags: His;MBP; label: Cy5 at 5' of strand 1; blunt
T2 sequence 1: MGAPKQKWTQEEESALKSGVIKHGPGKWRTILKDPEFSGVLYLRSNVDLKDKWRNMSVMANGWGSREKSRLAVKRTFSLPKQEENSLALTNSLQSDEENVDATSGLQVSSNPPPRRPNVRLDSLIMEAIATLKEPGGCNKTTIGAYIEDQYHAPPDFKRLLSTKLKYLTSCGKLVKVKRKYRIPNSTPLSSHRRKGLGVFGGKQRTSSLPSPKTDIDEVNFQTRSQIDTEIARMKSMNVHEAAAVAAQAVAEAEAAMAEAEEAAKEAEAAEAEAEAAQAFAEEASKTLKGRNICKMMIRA
T2 sequence 2: T1 sequence

B1: Probe 2 (P2) (dsDNA)
DNA 1: GACGCTTGAGCCTCAAGAAAT
DNA 2: ATTTCTTGAGGCTCAAGCGTC
[1]
  binding result: binds
[2]
  binding result: binds
